In assay [1] the target is 寨卡病毒GZ01株的E蛋白 (on virus particles) (Zika virus GZ01 strain). As to the kind of experiment: cell-based or functional assay.
Another assay has as its target T1, E-His 6 融合蛋白 (Zika virus, UniProt A0A024B7W1 292-693).
T1 construct: Expressed in 293T cells, purified on a Ni column and by gel filtration; Used as the ELISA coating antigen; also called E-His6 fusion protein; 寨卡病毒的E蛋白
In words: ELISA screen of memory B cell culture supernatants on coated E-His6 fusion protein. (ELISA stands for enzyme-linked immunosorbent assay.)

T1 sequence (A0A024B7W1 292-693, tags left off): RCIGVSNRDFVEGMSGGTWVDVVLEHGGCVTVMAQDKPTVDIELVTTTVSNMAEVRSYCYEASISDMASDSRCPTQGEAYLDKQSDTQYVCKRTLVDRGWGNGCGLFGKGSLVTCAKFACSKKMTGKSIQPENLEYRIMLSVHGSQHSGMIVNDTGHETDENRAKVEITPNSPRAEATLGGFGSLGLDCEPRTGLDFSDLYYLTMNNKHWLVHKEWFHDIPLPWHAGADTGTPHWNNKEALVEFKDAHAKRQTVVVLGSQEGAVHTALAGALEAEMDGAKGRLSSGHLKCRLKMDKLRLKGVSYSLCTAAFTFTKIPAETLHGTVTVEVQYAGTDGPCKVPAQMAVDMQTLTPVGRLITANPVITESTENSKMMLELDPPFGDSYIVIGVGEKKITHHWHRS

B1: ZK2C2 (antibody, human IgG1, lambda, V domains shown)
VH: EVQLLESGGGVVQPGRSLRLSCAGSGFTFSSYGMHWVRQAPGKGLEWVAVISYDGSNKYYVDSVKGRFTISRDNSRNTLYLQMNNLKAEDTAVYYCAKGHLIDWGQGTLVTVSS
VL: QLVLTQPPSASGTPGQRVTISCSGSSSNIGRNIVNWYQQFPGTTPKLLIYGTNQRPSGVPDRFSGSKSGTSASLAISGLQSEDETNYYCAAWDDSLNGWLFGGGTKLTVLG
notes: also called 单克隆抗体ZK2C2; ZK2C2抗体
For the molecule B1, the “中和百分比为50%时的抗体浓度 (IC50), plaque reduction on Vero cells” value in assay [1] was determined as 3.8 µg/mL. In the assay with E-His 6 融合蛋白, the binding result is “binds”.

(Values after patent publication CN108727489A (GUANGZHOU 8TH PEOPLES HOSPITAL; UNIV TSINGHUA, dated 2018).)
